Experimental data reported in patent US20200000929A1.

Molecular target: NPY2 receptor on HEK293/hNPY2R cells (human) (UniProt P49146)
Assay: cell-based or functional assay

NPY2 receptor on HEK293/hNPY2R cells (human), sequence (P49146 whole entry): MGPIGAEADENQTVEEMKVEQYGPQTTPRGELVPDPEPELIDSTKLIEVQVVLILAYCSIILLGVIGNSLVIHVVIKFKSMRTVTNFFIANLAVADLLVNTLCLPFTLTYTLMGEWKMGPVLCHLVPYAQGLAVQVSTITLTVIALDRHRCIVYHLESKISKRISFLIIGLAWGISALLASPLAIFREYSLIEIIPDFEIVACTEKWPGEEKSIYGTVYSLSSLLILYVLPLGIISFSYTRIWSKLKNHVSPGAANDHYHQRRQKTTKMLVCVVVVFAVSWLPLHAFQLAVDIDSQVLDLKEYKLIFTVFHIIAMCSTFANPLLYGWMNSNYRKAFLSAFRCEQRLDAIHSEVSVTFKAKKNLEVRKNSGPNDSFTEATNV
PYY(3-36) wild-type (peptide; modification not given), sequence (chain, as listed by the source): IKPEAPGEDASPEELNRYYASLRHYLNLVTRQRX

EC50 [nM], day 1, cAMP assay (inhibition of Forskolin stimulated cAMP accumulation in HEK293/hNPY2R cells) | EC50 [nM], day2, cAMP assay (inhibition of Forskolin stimulated cAMP accumulation in HEK293/hNPY2R cells) | Substance
0.09 nM | 0.1 nM | PYY(3-36) wild-type (peptide; modification not given)
0.14 nM | 0.15 nM | moPYY, Y2receptor specific modified analog of PYY(3-36): Ac-Ile-Lys-Pqa-Arg-His-Tyr-Leu-Asn-Trp-Val-Thr-Arg-Gln-(NMe)-Arg-Tyr-NH2 (peptide)
